Biological target: the molecule itself
Test: native MS

B1: recombinant DK fragment (DUF3669 and KRAB domains; residues 1-191) of ZNF746 (domain or fragment)
chain: not shown
In the case of B1, the “stoichiometry N” value is reported as 3.
